Reference: patent US11504441B2, “Radiolabeled compounds targeting the prostate-specific membrane antigen” (PROVINCIAL HEALTH SERVICES AUTHORITY, priority 2019, dated 2022)

Experiment: in vivo
Design: species or system mice
Conditions: male, NODSCID 1L2RγKO, mouse, iv, total radioactivity

For COc1ccc(CCCC(=O)NCC(=O)N[C@@H](CCCCNC(=O)CN2CCN(CC(=O)O)CCN(CC(=O)O)CCN(CC(=O)O)CC2)C(=O)NC[C@H]2CC[C@H](C(=O)N[C@@H](Cc3c4ccccc4cc4ccccc34)C(=O)NCCCC[C@H](NC(=O)N[C@@H](COCC(=O)O)C(=O)O)C(=O)O)CC2)cc1 [177Lu-HTK04028, metal not drawn], the tissue uptake at 1 h (Adrenal glands uptake) was 3.25 ± 0.34 %ID/g, the tissue uptake at 4 h (Adrenal glands uptake) was 2.18 ± 0.33 %ID/g and the tissue uptake at 24 h (Adrenal glands uptake) was 0.73 ± 0.13 %ID/g. It also gave a tissue uptake at 72 h (Adrenal glands uptake) of 0.48 ± 0.17 %ID/g, a tissue uptake at 120 h (Adrenal glands uptake) of 0.33 ± 0.05 %ID/g and a tissue uptake at 1 h (Blood uptake) of 17.7 ± 2.1 %ID/g. It also gave a tissue uptake at 4 h (Blood uptake) of 12.2 ± 1.66 %ID/g, a tissue uptake at 24 h (Blood uptake) of 0.82 ± 0.11 %ID/g and a tissue uptake at 72 h (Blood uptake) of 0.05 ± 0.01 %ID/g. It also gave a tissue uptake at 120 h (Blood uptake) of 0.02 %ID/g, a tissue uptake at 1 h (Bone uptake) of 0.99 ± 0.21 %ID/g and a tissue uptake at 4 h (Bone uptake) of 0.63 ± 0.1 %ID/g. The tissue uptake at 24 h (Bone uptake) was 0.11 ± 0.02 %ID/g, the tissue uptake at 72 h (Bone uptake) was 0.05 ± 0.02 %ID/g and the tissue uptake at 120 h (Bone uptake) was 0.04 ± 0.02 %ID/g. It also gave a tissue uptake at 1 h (Brain uptake) of 0.26 ± 0.03 %ID/g, a tissue uptake at 4 h (Brain uptake) of 0.19 ± 0.02 %ID/g and a tissue uptake at 24 h (Brain uptake) of 0.02 %ID/g. For the same compound, the tissue uptake at 72 h (Brain uptake) was 0.01 %ID/g, the tissue uptake at 1 h (Fat uptake) was 1.26 ± 0.21 %ID/g and the tissue uptake at 4 h (Fat uptake) was 0.89 ± 0.24 %ID/g. It also gave a tissue uptake at 24 h (Fat uptake) of 0.14 ± 0.02 %ID/g, a tissue uptake at 72 h (Fat uptake) of 0.06 ± 0.02 %ID/g and a tissue uptake at 120 h (Fat uptake) of 0.03 ± 0.01 %ID/g. The tissue uptake at 1 h (Heart uptake) was 4.15 ± 0.31 %ID/g, the tissue uptake at 4 h (Heart uptake) was 2.67 ± 0.31 %ID/g and the tissue uptake at 24 h (Heart uptake) was 0.36 ± 0.03 %ID/g. It also gave a tissue uptake at 72 h (Heart uptake) of 0.12 ± 0.03 %ID/g, a tissue uptake at 120 h (Heart uptake) of 0.07 ± 0.01 %ID/g and a tissue uptake at 1 h (Intestine uptake) of 1.23 ± 0.24 %ID/g. The tissue uptake at 4 h (Intestine uptake) was 1.04 ± 0.12 %ID/g, the tissue uptake at 24 h (Intestine uptake) was 0.23 ± 0.05 %ID/g and the tissue uptake at 72 h (Intestine uptake) was 0.07 ± 0.03 %ID/g. For the same compound, the tissue uptake at 120 h (Intestine uptake) was 0.08 ± 0.05 %ID/g, the tissue uptake at 1 h (Kidneys uptake) was 8.3 ± 1.58 %ID/g and the tissue uptake at 4 h (Kidneys uptake) was 9.21 ± 2.76 %ID/g. For the same compound, the tissue uptake at 24 h (Kidneys uptake) was 4.32 ± 0.58 %ID/g, the tissue uptake at 72 h (Kidneys uptake) was 1.77 ± 0.25 %ID/g and the tissue uptake at 120 h (Kidneys uptake) was 1.16 ± 0.13 %ID/g. For the same compound, the tissue uptake at 1 h (Lacrimal uptake) was 0.51 ± 0.23 %ID/g, the tissue uptake at 4 h (Lacrimal uptake) was 0.39 ± 0.19 %ID/g and the tissue uptake at 24 h (Lacrimal uptake) was 0.05 ± 0.04 %ID/g. For the same compound, the tissue uptake at 72 h (Lacrimal uptake) was 0.01 ± 0.01 %ID/g, the tissue uptake at 1 h (Liver uptake) was 2.93 ± 0.51 %ID/g and the tissue uptake at 4 h (Liver uptake) was 2.29 ± 0.55 %ID/g. For the same compound, the tissue uptake at 24 h (Liver uptake) was 0.54 ± 0.09 %ID/g, the tissue uptake at 72 h (Liver uptake) was 0.22 ± 0.02 %ID/g and the tissue uptake at 120 h (Liver uptake) was 0.31 ± 0.3 %ID/g. It also gave a tissue uptake at 1 h (Lungs uptake) of 7.88 ± 1.77 %ID/g, a tissue uptake at 4 h (Lungs uptake) of 5.79 ± 0.44 %ID/g and a tissue uptake at 24 h (Lungs uptake) of 1.08 ± 0.72 %ID/g. It also gave a tissue uptake at 72 h (Lungs uptake) of 0.18 ± 0.02 %ID/g, a tissue uptake at 120 h (Lungs uptake) of 0.09 ± 0.01 %ID/g and a tissue uptake at 1 h (Muscle uptake) of 1.32 ± 0.19 %ID/g. For the same compound, the tissue uptake at 4 h (Muscle uptake) was 0.83 ± 0.09 %ID/g, the tissue uptake at 24 h (Muscle uptake) was 0.11 ± 0.02 %ID/g and the tissue uptake at 72 h (Muscle uptake) was 0.03 ± 0.01 %ID/g. The tissue uptake at 120 h (Muscle uptake) was 0.02 %ID/g, the tissue uptake at 1 h (Pancreas uptake) was 1.53 ± 0.22 %ID/g and the tissue uptake at 4 h (Pancreas uptake) was 1.24 ± 0.04 %ID/g. The tissue uptake at 24 h (Pancreas uptake) was 0.15 ± 0.02 %ID/g, the tissue uptake at 72 h (Pancreas uptake) was 0.05 ± 0.01 %ID/g and the tissue uptake at 120 h (Pancreas uptake) was 0.03 %ID/g. The tissue uptake at 1 h (Salivary uptake) was 2.55 ± 0.21 %ID/g, the tissue uptake at 4 h (Salivary uptake) was 1.75 ± 0.25 %ID/g and the tissue uptake at 24 h (Salivary uptake) was 0.45 ± 0.1 %ID/g. For the same compound, the tissue uptake at 72 h (Salivary uptake) was 0.19 ± 0.05 %ID/g, the tissue uptake at 120 h (Salivary uptake) was 0.11 ± 0.03 %ID/g and the tissue uptake at 1 h (Seminal uptake) was 1.53 ± 0.97 %ID/g. It also gave a tissue uptake at 4 h (Seminal uptake) of 0.9 ± 0.2 %ID/g, a tissue uptake at 24 h (Seminal uptake) of 0.12 ± 0.02 %ID/g and a tissue uptake at 72 h (Seminal uptake) of 0.05 ± 0.01 %ID/g. For the same compound, the tissue uptake at 120 h (Seminal uptake) was 0.05 ± 0.03 %ID/g, the tissue uptake at 1 h (Spleen uptake) was 1.53 ± 0.23 %ID/g and the tissue uptake at 4 h (Spleen uptake) was 1.44 ± 0.31 %ID/g. The tissue uptake at 24 h (Spleen uptake) was 0.48 ± 0.14 %ID/g, the tissue uptake at 72 h (Spleen uptake) was 0.49 ± 0.16 %ID/g and the tissue uptake at 120 h (Spleen uptake) was 0.69 ± 0.36 %ID/g. For the same compound, the tissue uptake at 1 h (Stomach uptake) was 0.51 ± 0.18 %ID/g, the tissue uptake at 4 h (Stomach uptake) was 0.45 ± 0.06 %ID/g and the tissue uptake at 24 h (Stomach uptake) was 0.31 ± 0.1 %ID/g. For the same compound, the tissue uptake at 72 h (Stomach uptake) was 0.07 ± 0.07 %ID/g, the tissue uptake at 120 h (Stomach uptake) was 0.1 ± 0.1 %ID/g and the tissue uptake at 1 h (Tail uptake) was 4.85 ± 1.59 %ID/g. The tissue uptake at 4 h (Tail uptake) was 2.21 ± 0.18 %ID/g, the tissue uptake at 24 h (Tail uptake) was 0.31 ± 0.1 %ID/g and the tissue uptake at 72 h (Tail uptake) was 0.15 ± 0.04 %ID/g. The tissue uptake at 120 h (Tail uptake) was 0.1 ± 0.03 %ID/g, the tissue uptake at 1 h (Testes uptake) was 2.26 ± 0.46 %ID/g and the tissue uptake at 4 h (Testes uptake) was 2.66 ± 0.41 %ID/g. The tissue uptake at 24 h (Testes uptake) was 0.55 ± 0.05 %ID/g, the tissue uptake at 72 h (Testes uptake) was 0.31 ± 0.05 %ID/g and the tissue uptake at 120 h (Testes uptake) was 0.22 ± 0.01 %ID/g. For the same compound, the tissue uptake at 1 h (Thyroid uptake) was 3.3 ± 0.42 %ID/g, the tissue uptake at 4 h (Thyroid uptake) was 2.3 ± 0.3 %ID/g and the tissue uptake at 24 h (Thyroid uptake) was 0.52 ± 0.08 %ID/g. The tissue uptake at 72 h (Thyroid uptake) was 0.24 ± 0.04 %ID/g, the tissue uptake at 120 h (Thyroid uptake) was 0.13 ± 0.02 %ID/g and the tissue uptake at 1 h (Tumor uptake) was 19 ± 5.86 %ID/g. For the same compound, the tissue uptake at 4 h (Tumor uptake) was 42.6 ± 11.6 %ID/g, the tissue uptake at 24 h (Tumor uptake) was 30.2 ± 2.74 %ID/g and the tissue uptake at 72 h (Tumor uptake) was 26.1 ± 7.29 %ID/g. The tissue uptake at 120 h (Tumor uptake) was 28.4 ± 5.11 %ID/g.
